The target of this series is UNG2-Fluor (human, UniProt P13051 =C+1-313, C141A;C166A;C290A;internal_change). Nature of the series: fluorescence quenching titration; 1 mM MgCl2; 10 mM Tris-Cl, 0.1 mM EDTA, pH 8.0, 2 mM NaCl carry-over, MgCl2 varied, 22 C, 50 nM UNG2-Fluor; ex 495 nm, em 520 nm. The settings on record: protein: recombinant; tags: N-terminal fluorescein (maleimide on added Cys); label: 5' Iowa Black FQ; single strand.

The term Kd denotes the constant that tells how readily two partners part at equilibrium.

Sequence of UNG2-Fluor (P13051 other isoform, or with tags, fused parts or gaps C141A;C166A;C290A;): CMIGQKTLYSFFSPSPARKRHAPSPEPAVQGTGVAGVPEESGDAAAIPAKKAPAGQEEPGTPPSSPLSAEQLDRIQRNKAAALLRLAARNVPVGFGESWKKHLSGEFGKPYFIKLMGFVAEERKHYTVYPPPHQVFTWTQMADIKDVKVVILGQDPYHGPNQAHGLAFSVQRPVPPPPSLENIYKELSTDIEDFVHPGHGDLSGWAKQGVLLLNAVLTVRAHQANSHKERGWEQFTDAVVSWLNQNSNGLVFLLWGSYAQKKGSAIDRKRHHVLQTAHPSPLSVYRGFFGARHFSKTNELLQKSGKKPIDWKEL

B1: 6 nt dark quencher ssDNA (ssDNA)
DNA: CGATAG
For B1, the Kd was found to be 1000 nM.

B2: 27 nt dark quencher ssDNA (ssDNA)
DNA: TCAGGTGAATCGATAGCTAAGAGCATG
Consider B2, for which the Kd came to 3 nM.

(Values after PMC12096439, “Ion-DNA Interactions as a Key Determinant of Uracil DNA Glycosylase Activity”.)
